T1: soluble mouse TNFR2 (mouse, UniProt P25119 23-258, limits assumed)
T1 sequence (looked up): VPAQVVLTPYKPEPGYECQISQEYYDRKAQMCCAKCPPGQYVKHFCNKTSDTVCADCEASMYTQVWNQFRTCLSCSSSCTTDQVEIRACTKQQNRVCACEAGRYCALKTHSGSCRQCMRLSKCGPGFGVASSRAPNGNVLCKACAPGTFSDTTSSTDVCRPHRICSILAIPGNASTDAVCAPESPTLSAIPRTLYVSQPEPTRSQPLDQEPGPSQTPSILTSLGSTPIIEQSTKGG

T2: TNFR-Fc (UniProt P20333 23-257, limits assumed)
T2 construct: Printed only as TNFR-Fc; not shown: Fc part
T2 sequence (looked up): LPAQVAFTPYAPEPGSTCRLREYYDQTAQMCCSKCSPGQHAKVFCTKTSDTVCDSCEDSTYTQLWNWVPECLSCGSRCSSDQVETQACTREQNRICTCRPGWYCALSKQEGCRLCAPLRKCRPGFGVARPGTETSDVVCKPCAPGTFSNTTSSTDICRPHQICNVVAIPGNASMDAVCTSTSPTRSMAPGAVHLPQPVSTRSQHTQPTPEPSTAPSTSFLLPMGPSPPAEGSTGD

T3: cynomolgus TNFR2-His tagged protein (cynomolgus, UniProt A0A2K5VET2 132-366)
T3 construct: also called Cyno TNFR2; cynomolgus TNFR2 protein; not shown: His tag
T3 sequence: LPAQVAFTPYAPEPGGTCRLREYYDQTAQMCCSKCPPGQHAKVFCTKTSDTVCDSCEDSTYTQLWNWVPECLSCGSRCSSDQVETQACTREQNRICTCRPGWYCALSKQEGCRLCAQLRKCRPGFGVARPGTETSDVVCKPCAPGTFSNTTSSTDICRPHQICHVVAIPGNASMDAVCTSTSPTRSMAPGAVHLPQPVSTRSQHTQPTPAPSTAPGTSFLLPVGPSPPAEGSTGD

T4: human TNFR2 expressed on cells (human, UniProt P20333 23-461)
T4 construct: whole, on cells; also called hTNFR2 (cell); CHO-TNFR2
T4 sequence (looked up): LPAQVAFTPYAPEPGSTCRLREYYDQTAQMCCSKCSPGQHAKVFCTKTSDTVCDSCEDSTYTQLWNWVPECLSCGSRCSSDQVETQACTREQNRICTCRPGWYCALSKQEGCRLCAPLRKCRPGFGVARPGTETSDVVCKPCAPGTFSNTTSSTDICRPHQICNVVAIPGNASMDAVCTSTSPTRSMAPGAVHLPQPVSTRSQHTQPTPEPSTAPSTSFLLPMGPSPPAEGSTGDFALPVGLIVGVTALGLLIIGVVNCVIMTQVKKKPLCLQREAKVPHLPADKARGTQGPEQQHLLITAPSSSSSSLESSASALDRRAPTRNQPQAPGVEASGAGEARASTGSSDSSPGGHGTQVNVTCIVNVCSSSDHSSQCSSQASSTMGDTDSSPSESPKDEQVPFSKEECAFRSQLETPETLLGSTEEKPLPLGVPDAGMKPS

T5: human TNFR2-His tagged protein (soluble) (human, UniProt P20333 23-257)
T5 construct: also called hTNFR2 (soluble); soluble TNFR2-His; not shown: His tag
T5 sequence (looked up): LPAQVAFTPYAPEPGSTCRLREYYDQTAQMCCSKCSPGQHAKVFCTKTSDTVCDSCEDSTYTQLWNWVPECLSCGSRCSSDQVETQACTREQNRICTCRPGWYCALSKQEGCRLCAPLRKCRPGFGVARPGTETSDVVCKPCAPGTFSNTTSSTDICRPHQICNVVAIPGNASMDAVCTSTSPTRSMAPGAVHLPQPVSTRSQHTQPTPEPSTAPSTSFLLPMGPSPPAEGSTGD


Experiments:
soluble mouse TNFR2 = molecular target: T1, soluble mouse TNFR2; test: binding screen on soluble mouse TNFR2 (mouse cross-reactivity)
TNFR-Fc = molecular target: T2, TNFR-Fc; test: TNF-α blocking ELISA on coated TNFR-Fc
Method: (§1) In FIGS. 3A-3B, human (3A) or cynomolgus (3B) TNFR2-His tagged protein was coated on 96-well ELISA plates at 1 μg/mL and incubated overnight at 4° C. Plates were washed and blocked using 1% BSA. Antibodies were added for 1 hour at room temperature (RT), washed, and detected using anti-Human HRP. Assay was developed using TMB substrate for 3-5 minutes. In FIG. 3C, FACS binding was performed on CHO cells that were engineered to express human TNFR2. Briefly, antibodies were incubated with 200,000 cells in MACS buffer for 1 hour followed by wash and detection using anti-human IgG BV421 for 20 minutes. Samples were analyzed using Cytoflex or MACSQuant flow cytometers. In FIG. 3D, ligand blocking ELISA was performed by coating plates with 1 ug/mL TNFR-Fc overnight at 4° C. Plates were washed, blocked and antibodies were incubated for 1 hr at RT. […] Assay was developed using TMB substrate for 5-7 minutes.

[1] = molecular target: T3, cynomolgus TNFR2-His tagged protein; test: ELISA on coated cynomolgus TNFR2-His
Method: as §1

[2] = molecular target: T4, human TNFR2 expressed on cells; test: flow cytometry on CHO cells expressing human TNFR2
Method: as §1

[3] = molecular target: T5, human TNFR2-His tagged protein (soluble); test: ELISA on coated human TNFR2-His
Method: as §1

Binder	binding result (soluble mouse TNFR2)	IC50 (TNFR-Fc)	EC50 [1]	EC50 [2]	EC50 [3]
chimeric antibody clone 55F6.1 (taken as rab600_23_55F6.6) (antibody, V domains shown) VH: QQQLEESGGDLVKPGASLTVTCTASGFSFTNNYYMCWVRQAPGKGLEWIGCIYPSIVGPTYYANWAKGRFTISKTSSTTVTLEMTSLTAADTATYFCVRDRYDDYGDYFNLWGPGTLVTVSS VL: DIVMTQTPASVSVPVGGTVTIKCQASQSIYNYLSWYQQKPGQPPKRLIYYASTLASGVPSRFSGSGSGTEFTLTISDLECADAATYYCQSNSGVNGNRYGNAFGGGTEVVVK	no binding	4.35 nM	0.0862 nM	1.32 nM	0.124 nM
chimeric antibody clone 11G12.1 (rab600_23_11G12.1) (antibody, V domains shown, also called rab600_23_HG12.1) VH: QSLEESGGDLVQPGASLTLTCTASGFSVNVNSYMCWVRQAPGKGLELIACIDTGSGGSTWYGSWAKGRFTISKSTNLNTVTLQMTSLTAADTATYFCARARNTYGYGDYVYGGAFDPWGPGTLVTVSS VL: DIVMTQTPASVEAAVGGTVTIKCQASQSISSTYLSWYQQKPGQRPKLLIYQASTLASGVPSRFKGSGSGTEFTLTISDLECADAATYYCQGGYFSDNGCYNAFGGGTEVVVK	no binding	–	0.191 nM	–	0.261 nM
chimeric antibody clone 8G10.7 (rab600_23_8G10.7) (antibody, V domains shown) VH: LEQSGGGAGGGLVKPGGSLELCCKASGFTLINSHWICWVRQAPGKGLEWIGCIFAGSAGSTYYATWVSGRFTLSRDIDQNTGCLQLNSLTAADTAMYYCARDQTNTAYDPFYLNLWGQGTLVTVSS VL: IEMTQTPFSVSAAVGGTVTINCQASENIYSSLAWYQQKPGQPPKLLIYAASDLASGVPSRFSGSGSGTEYTLTISGVQCADAATYYCQSAYSSGSDDNGFGGGTEVVVK	no binding	–	0.269 nM	–	0.243 nM
chimeric antibody clone 28B7.3 (rab600_23_28B7.3) (antibody, V domains shown) VH: QSVEESGGRLVTPGTPLTLTCTVSGFSLNSHYMIWVRQAPGKGLEYIGIITSSDYIYYARWAKGRFTISKTSSTTVDLKITSPTTEDTATYSCARYNYDDDGELFNLWGQGTLVTVSS VL: AVLTQTPSSVSAAVGGTVTLNCQSSQSIDANNDLAWYQQKPGQPPRLLIYLASKLASGVPSRFSGSGSGTQFTLTISGVQCDDAATYYCLGGYDDDADNTFGGGTEVVVK	no binding	2.97 nM	0.0763 nM	0.321 nM	0.149 nM
chimeric antibody clone 37H4.1 (rab600_23_37H4.1) (antibody, V domains shown) VH: QSVEESGGRLVTPGTPLTLTCTVSGFSLNSHYMIWVRQAPGKGLEYIGVITSSDYIYYARWAKGRFTISKTSSTTVDLKITSPTTEDTATYFCARYNYDDDGELFNLWGQGTLVTVSS VL: AVLTQTPSSVSAAVGGTVTLNCQSSQSIDANNDLAWYQQKPGQPPKLLIYLASTRASGVPSRFKGSGSGTQFTLTISGVQCYDAATYYCLGGYDDDADNTFGGGTEVVVK	no binding	2.92 nM	0.195 nM	–	0.184 nM

Next, values leading:

binding result (soluble mouse TNFR2)	IC50 (TNFR-Fc)	EC50 [1]	EC50 [2]	EC50 [3]	Binder
no binding	5.41 nM	0.243 nM	0.26 nM	0.206 nM	chimeric antibody clone 23.71 (rab600_23_71) (antibody, V domains shown) VH: QSVEESGGRLVTPGTSLTLTCTVSGIDLSSYAMSWVRQAQGKGLEWIGIIGDSGSTWYASWAKGRFTISKTSTTVDLKITSPTPEDTATYFCAREPDYGGYAGYGYGDLWGQGTLVTVSS VL: IKMTQTLASVSAAVGGTGSISCQASEDIGNYVAWYQQKPGQPPKFLIYDTSHLASGVPSRFKGSRSGKEFTLTISGVQCDDAATYYCQHGYYTSDTDNTFGGGTEVVVK
no binding	3.16 nM	0.093 nM	0.1 nM	0.098 nM	chimeric antibody clone 24 (rab600_23_24) (antibody, V domains shown) VH: QSLEESGGRLVTPGTPLTLTCTASGFSLNSYGVNWVRQAPGKGLEWIGGINTGGSTYYANWAKGRFTISKTSAMVDLKVTSPTTEDTATYVCARTSGNNVYNYFTLWGQGTLVTVSS VL: DIVMTQTPSSVSAAVGGTVTIYCQASQSIPSLLAWYQQKSGQPPKLLIYAPSTLASGVPSRFKASGSGTQFTLTISDLECADAATYYCQSYYYGDNTYNNIFGGGTEVVVK
no binding	24.6 nM	0.0927 nM	–	0.157 nM	chimeric antibody clone 8G11.5 (rab600_23_8G11.5) (antibody, V domains shown) VH: QSLEESGGRLVTPGTPLTLTCTVSGFSLNSNGMNWVRQAPGKGLEWIGGINAGGSAYYANWAKGRFTISKTSTMVDLKITSPTTEDTATYFCAKTSGINVYNYLNLWGQGTLVTVSS VL: DIVMTQTPSPVSAAVGGTVTINCQASQSIYTALAWYQQKSGQPPKLLIYAASTLASGVPSRFKGSGSGTQFTLTISDLECADAATYYCQNYYYGDNTYNNTFGGGTEVVVK
no binding	27.8 nM	0.081 nM	–	0.156 nM	chimeric antibody clone 37D1.4 (rab600_23_37D1.4) (antibody, V domains shown) VH: QSLEESGGRLVTPGTPLTLTCTVSGFSLNSNGMNWVRQAPGKGLEWIGGINAGGSAYYANWAKGRFTISKTSTMVDLKITSPTTEDTATYFCAKTSGINVYNYLNLWGQGTLVTVSS VL: DIVMTQTPSPVSAAVGGTVTINCQASQSIYTALAWYQQKSGQPPKLLIYAASTLASGVPSRFKGSGSGTQFTLTISDLECADAATYYCQNYYYGDNTYNNTFGGGTEVVVK
no binding	3.25 nM	0.148 nM	0.1 nM	0.126 nM	chimeric antibody clone 37 (rab600_25_37) (antibody, V domains shown) VH: QSVEESGGRLVTPGTPLILTCTVSGIDLSNYAMGWFRQAPGEGLEWIGSRRTDGITYYANWAEGRFTISRTSTTVDLEITSPTTEDTATYFCGRDVGGDGGWYFNLWGPGTLVTVSS VL: AGDMTQTPASVEVAVGGTVTIKCQASQSINIYLAWYQQKPGQPPKLLIYDASKLASGVPSRFSGSGSGTEFTLTISDLECADAATYYCQQGINNIGFGGGTEVVVK
no binding	2.78 nM	0.151 nM	0.147 nM	0.144 nM	chimeric antibody clone 9 (rab600_25_9) (antibody, V domains shown) VH: QSVEESGGRLVTPGTPLTLTCTVSGFSLSTYDINWVRQAPGKGLEWIGIIYTGGITNFANWAKGRFTISKTSTTVDLKIASPTTEDTATYFCARGGYDSDGYVYPDAFDPWGPGTLVTVSS VL: ALVMTQTPASVEADVGGTVTINCQASESISNLLAWYQQKPGQRPKLLIYRASILTSGVSSRFKGSGSGTEYTLTINGVQCADAATYYCQHGYTGTNVQNVFGGGTEVVVK
no binding	2.98 nM	0.197 nM	0.091 nM	0.147 nM	chimeric antibody clone 25.71 (rab600_25_71) (antibody, V domains shown) VH: QSVEESEGRLVTPGTPLTLTCTVSGIDLSSYAMGWVRQAPGMGLEWIGDISTSGNAYYATWVKGRFTISRTSTTVDLKMASLTTADTATYFCARADYGGETYAFDPWGPGTLVTVSS VL: DIVMTQTPASVEAAVGGTVTIKCQASQSISSYLNWYQQKPGQPPKLLIYSASTLASGVPSRFKGSGSGTQFTLTISGVECADAATYYCQQGYSDSNIDNVFGGGTEVVVK

— patent publication US20220372154A1 (APEXIGEN, published 2022)
